Source: patent US20240059769A1 (BIOLOJIC DESIGN, published 2024)
Numbering of substitutions follows the chain as printed. Like-named read-outs stand apart in the source and are kept apart here. Values belong to the binder of their own block, whether it stands above or below them.

Key:
[1] = target: T1, recombinant human TSLP (hTSLP)-Fc (human, UniProt Q969D9 29-159, limits assumed); test: yeast surface display, flow cytometry, 10 nM hTSLP-Fc; MFI normalized to expression and to the positive control
T1 construct: not shown: Fc

[2] = target: T2, recombinant human IL-13 (rh-IL-13)-Fc (human, UniProt P35225 35-146, limits assumed); test: yeast surface display scFv, flow cytometry, 10 nM rh-IL-13-Fc
T2 construct: bought; not shown: human Fc

[3] = target: T3, recombinant cynomolgus monkey IL-13 (cynomolgus monkey, UniProt Q0PW92 21-132); test: SPR
T3 construct: bought; also called rc-IL-13; cIL-13

[4] = target: T4, hTSLP-His (human, UniProt Q969D9 29-159, limits assumed); test: competition ELISA, 7 nM TSLP-His pre-incubated with antibody; competitor Tezepelumab coated
T4 construct: bought; also called hTSLP (ACROBiosystems TSP-H52Hb); not shown: His tag

[5] = target: T5, recombinant human IL-13 (human, UniProt P35225 35-146); test: cell-based or functional assay
[6] = target: T6, cynomolgus monkey (cyno) TSLP (cynomolgus monkey, UniProt A0A7N9CAT7 29-159); test: SPR
T6 construct: also called cTSLP; cynomolgus TSLP

[7] = target: T5, recombinant human IL-13; test: SPR
[8] = target: T7, human TSLP (human, UniProt Q969D9 29-159); test: SPR
T7 construct: also called hTSLP; rhTSLP

[9] = target: T4, hTSLP-His; test: cell-based or functional assay
[10] = target: T5, recombinant human IL-13; test: cell-based or functional assay; remark: listed apart in the source
[11] = target: T7, human TSLP; test: cell-based or functional assay
[12] = target: T7, human TSLP; test: yeast surface display, affinity maturation library
[13] = target: T5, recombinant human IL-13; test: SPR; remark: listed apart in the source
[14] = target: T7, human TSLP; test: SPR; remark: listed apart in the source

T6 sequence (A0A7N9CAT7 entry or part of it): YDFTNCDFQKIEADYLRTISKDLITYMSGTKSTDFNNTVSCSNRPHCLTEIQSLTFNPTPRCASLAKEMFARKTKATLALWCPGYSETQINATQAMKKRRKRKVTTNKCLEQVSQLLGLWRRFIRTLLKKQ
T3 sequence (Q0PW92 entry or part of it): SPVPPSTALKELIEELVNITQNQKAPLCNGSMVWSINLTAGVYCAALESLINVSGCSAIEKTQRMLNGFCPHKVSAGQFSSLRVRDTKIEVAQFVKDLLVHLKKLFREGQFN
T2 sequence (P35225 35-146 limits assumed): as the sequence (Q0PW92 entry or part of it) above, with S1G, K10R, V42M, N67S, R83H, V100L counted along it
T5 sequence (P35225 35-146 limits assumed): as the sequence (Q0PW92 entry or part of it) above, with S1G, K10R, V42M, N67S, R83H, V100L counted along it

B1: Clone C9 (yeast-displayed scFv) (scFv)
scFv: QMQLVESGGGVVQPGRSLRLSCAASGFTFRTYGMHWVRQAPGKGLEWVAVIWYDGSNKHYADSVKGRFTITRDNSKNTLNLQMNSLRAEDTAVYYCARSPQWEWVHEAFDLWGQGTMVTVSSGGGGSGGGGSGGGGSSYVLTQPPSVSVAPGQTARITCGGNLIGSKLVHWYQQKPGQAPVLVVYDDGDRPSWIPERFSGSNSGNTATLTISRVEAGDEADYYCQVWDSSSDGVVFGGGTKLTVL
binding result [1]: binds | relative affinity (normalized MFI, % of positive control) [2]: > 20%

B5: BDG38.132 (antibody, V domains shown)
VH: QMQLVESGGGVVQPGRSLRLSCAASGFEFRTYGMHWVRQAPGKGLEWVGVIWDDGSNTHYADSVKGRFTITRDNSKNTLNLQMNSLRAEDTAVYYCVRAPQWYLTAEAFDLWGQGTMVTVSS
VL: SYILTQPPSVSVAPGETATITCGGNLIGARLVHWYQQKPGQAPVLVIYDDSDRPSRIPERFSGSNIGNTATLTISRVEAGDEADYYCQVWDYSSDHMVFGGGTKLTVL
notes: IgG1
Kd [3]: 56.3 pM | koff [3]: 0.00201 s⁻¹ | kon [3]: 3.58e+07 M⁻¹ s⁻¹ | IC50 [4]: 9200 pM | HEK-IL-13 [nM] (IC50, STAT6 reporter) [5]: 0.0899 nM | Kd [6]: 0.321 pM | koff [6]: 2.19e-06 s⁻¹ | kon [6]: 6.83e+06 M⁻¹ s⁻¹ | Kd [7]: 17.8 pM | koff [7]: 0.000184 s⁻¹ | kon [7]: 1.03e+07 M⁻¹ s⁻¹ | Kd [8]: 3.41 pM | koff [8]: 3.55e-05 s⁻¹ | kon [8]: 1.04e+07 M⁻¹ s⁻¹ | IC50 [pM], STAT5 phosphorylation inhibition in MUTZ5 cells [9]: 0.386 pM | IC50 CD23 [10]: 430 pM | IC50 TARC [11]: 22400 pM

B7: BDG38.076 (antibody, V domains shown)
VH: B5 VH with E28A, G49A, N57A
VL: SYVLTQPPSVSVAPGETASITCGGNMIGGYLVHWYQQKPGQAPLLVIYDDVDRPARIPERFSGSNSGNTATLTISRVEAGDEADYYCQVWDHDTNHMVFGGGTKLTVL
notes: IgG1
Kd [13]: 35.4 pM | koff [13]: 0.000231 s⁻¹ | kon [13]: 6.53e+06 M⁻¹ s⁻¹ | Kd [14]: 1.61 pM | koff [14]: 3.22e-05 s⁻¹ | kon [14]: 2e+07 M⁻¹ s⁻¹ | Kd [3]: 822 pM | koff [3]: 0.00671 s⁻¹ | kon [3]: 8.16e+06 M⁻¹ s⁻¹ | IC50 [4]: 5380 pM | HEK-IL-13 [nM] (IC50, STAT6 reporter) [5]: 0.0494 nM | Kd [6]: 0.00512 pM | koff [6]: 3.99e-08 s⁻¹ | kon [6]: 7.8e+06 M⁻¹ s⁻¹ | IC50 [pM], STAT5 phosphorylation inhibition in MUTZ5 cells [9]: 30.1 pM | IC50 CD23 [10]: 308 pM | IC50 TARC [11]: 3210 pM

B8: BDG38.135 (antibody, V domains shown)
VH: B5 VH with R16Q, E28A, V48L, G49A, D53Y, L104N, T105S
VL: B5 VL with I3V, E16Q, T19R, I47V, R56H, I66S, Y92H, S94A, H96T
HEK-IL-13 [nM] (IC50, STAT6 reporter) [5]: 0.406 nM | IC50 CD23 [10]: 408 pM | IC50 TARC [11]: 804 pM

Further lines, results first:

binding result [1]: binds | relative affinity (normalized MFI, % of positive control) [2]: > 20%
B2: Clone C6 (yeast-displayed scFv) (scFv)
scFv: B1 scFv with S99A, E103M, W104L, H106A, G188S, W193R, G233H

binding result [1]: binds | relative affinity (normalized MFI, % of positive control) [2]: > 20%
B3: Clone C40 (yeast-displayed scFv) (scFv)
scFv: B1 scFv with L163N, G188S, W193R, S229T

binding result [1]: binds | relative affinity (normalized MFI, % of positive control) [2]: > 20%
B4: Clone C2 (yeast-displayed scFv) (scFv)
scFv: B1 scFv with S99A, W104L, V105T, H106A, L111I, G188S, W193L

binding result [12]: binds
B6: Ab clone 38.021 (yeast surface display) (scFv, V domains shown)
VH: B5 VH with E28A, R30D, G49A, D53Y, H59V, V97A, T105S
VL: B5 VL with I3V, E16Q, T19R, A29S, R30K, I47V, I66S, Y92H, M97Y
notes: YSD clone; also called BDG38_021

binding result [12]: binds
B9: Ab clone 38.018 (yeast surface display) (scFv, V domains shown)
VH: B5 VH with E28A, G49A, V97A, T105S
VL: B5 VL with I3V, E16Q, T19R, A29S, R30K, I47V, I66S, Y92H, M97V
notes: YSD clone; also called BDG38_018

binding result [12]: binds
B10: Ab clone 38.019 (yeast surface display) (scFv, V domains shown)
VH: B5 VH with E28A, G49A, D53Y, T105S
VL: B5 VL with I3V, E16Q, T19R, A29S, R30K, I47V, I66S, D95N, M97V
notes: YSD clone; also called BDG38_019
